We go through nine molecules from patent US20260226180A1 (BIOCYTOGEN PHARMACEUTICALS BEIJING, published 2026).

Like-named read-outs stand apart in the source and are kept apart here.

For assay [1], the target named is T1, human IL2RA expressed on CHO-S cells (CHO-S-hIL2RA cells) (human, UniProt P01589 22-272).
T1 sequence: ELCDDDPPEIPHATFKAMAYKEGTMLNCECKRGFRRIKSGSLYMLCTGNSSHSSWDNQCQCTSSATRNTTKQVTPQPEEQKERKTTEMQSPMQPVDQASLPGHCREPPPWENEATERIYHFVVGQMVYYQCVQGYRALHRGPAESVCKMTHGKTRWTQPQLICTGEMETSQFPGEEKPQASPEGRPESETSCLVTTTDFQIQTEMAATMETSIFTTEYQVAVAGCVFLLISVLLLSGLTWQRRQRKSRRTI
The assay can be described thus: flow cytometry blocking assay on CHO-S-hIL2RA cells; blocked ligand: biotinylated human IL-2 at 2.5 µg/mL, detected with APC streptavidin.
Experimental: (§1) CHO-S-hIL2RA cells were seeded in a 96-well plate (cell density 2×10⁵ cells/well) and incubated at 37° C. overnight. […] The above 96-well plate was incubated at 4° C. for 20 minutes.
(§2) The mean fluorescence intensity (MFI) was determined. A fitting curve was obtained using Log(antibody concentration (μg/mL)) or antibody concentration (μg/mL) as the X-axis and Log(mean MFI) or MFI as the Y-axis.

Assay [2] deals with T1, human IL2RA expressed on CHO-S cells …. The assay is described as above. The source holds these as a separate data set.
Experimental: as §1, §2
Assay [3] shares this target. The assay can be described thus: flow cytometry on CHO-S cells expressing the target, anti-human IgG Fc secondary. (In flow cytometry, cells or beads pass a laser one at a time.)
Experimental: (§3) CHO-S-hIL2RA cells or CHO-S-fasIL2RA cells were plated in a 96-well plate at a density of 2×10⁵ cells/well. Serially diluted purified anti-IL2RA antibodies (maximum concentration: 9 μg/mL, 2-fold dilutions, 11 gradients) were added to each well and were incubated at 4° C. for 30 minutes.
(§4) The cells were collected, and the mean fluorescence intensity (MFI) was determined. A fitting curve was obtained using Log(antibody concentration (μg/mL)) as the X-axis and mean MFI as the Y-axis.
Assay [4] addresses T2, monkey (Macaca fascicularis) IL2RA expressed on CHO-S cells (CHO-S-fasIL2RA cells) (monkey (Macaca fascicularis), UniProt Q5MNY4 22-272).
T2 chain: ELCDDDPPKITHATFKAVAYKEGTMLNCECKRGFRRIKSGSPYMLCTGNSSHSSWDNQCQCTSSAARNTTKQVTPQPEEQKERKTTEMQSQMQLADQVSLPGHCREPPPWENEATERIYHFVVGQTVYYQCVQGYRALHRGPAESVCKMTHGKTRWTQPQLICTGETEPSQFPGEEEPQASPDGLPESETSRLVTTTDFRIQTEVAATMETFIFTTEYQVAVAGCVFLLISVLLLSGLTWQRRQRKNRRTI
The description is as above.
Experimental: as §3, §4

The target of assay [5] is T3, His-tagged human IL2RA protein (hIL2RA-his, ACROBiosystems Inc., Cat #: ILA-H52H9) (human, UniProt P01589 22-213, limits assumed).
T3 construct: Bought protein; the soluble protein is most likely only an extracellular part of it; not shown: His tag
T3 sequence: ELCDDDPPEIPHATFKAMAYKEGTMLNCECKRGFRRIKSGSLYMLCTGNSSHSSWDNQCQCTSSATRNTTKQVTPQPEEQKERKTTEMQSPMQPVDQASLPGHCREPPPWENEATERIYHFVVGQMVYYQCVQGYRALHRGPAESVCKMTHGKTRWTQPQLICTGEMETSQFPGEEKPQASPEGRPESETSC
The assay can be described thus: SPR (Biacore 8K), antibody captured on Protein A chip, His-tagged antigen as analyte, 1:1 fit.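 Note: antibodies captured at about 150 RU, antigen injected as a titration series, dissociation phase recorded over 400 s.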

For assay [6], the target named is T4, His-tagged recombinant monkey (Cynomolgus monkey, Macaca fascicularis) IL2RA protein (cynoIL2RA-his, Sino … (Cynomolgus monkey (Macaca fascicularis), UniProt Q5MNY4 22-213 (rhesus entry))).
T4 construct: Bought protein; the soluble protein is most likely only an extracellular part of it; not shown: His tag
T4 chain: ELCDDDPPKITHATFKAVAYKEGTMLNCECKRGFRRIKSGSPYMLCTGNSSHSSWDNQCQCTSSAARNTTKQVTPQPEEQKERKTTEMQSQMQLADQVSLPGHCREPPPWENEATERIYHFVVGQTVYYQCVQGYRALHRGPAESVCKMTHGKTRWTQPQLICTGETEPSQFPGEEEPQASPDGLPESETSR
The assay is described as above.

The target in assay [7] is T4, His-tagged recombinant monkey …. In words: SPR (Biacore 8K), antibody captured on Protein A chip, His-tagged antigen as analyte; "-" means no binding.
Experimental: Purified anti-IL2RA antibodies were diluted to 2 g/mL and then injected into the Biacore™ 8K biosensor at 10 L/min for about 50 seconds to achieve a desired protein density (e.g., about 150 response units (RU)). […] Dissociation was monitored for 400 seconds. The chip was regenerated after the last injection of each titration with glycine (pH 2.0, 30 L/min for 30 seconds).

B1: Daclizumab analog (antibody, V domains shown)
VH: QVQLVQSGAEVKKPGSSVKVSCKASGYTFTSYRMHWVRQAPGQGLEWIGYINPSTGYTEYNQKFKDKATITADESTNTAYMELSSLRSEDTAVYVCARGGGVFDYWGQGTLVTVSS
VL: DIQMTQSPSTLSASVGDRVTITCSASSSISYMHWYQQKPGKAPKLLIYTTSNLASGVPARFSGSGSGTEFTLTISSLQPDDFATYYCHQRSTYPLTFGQGTKVEVK
notes: Daclizumab is described as a humanized monoclonal antibody
Take B1: the “IC50 (read off the curve)” value in assay [1] was approximately 4 µg/mL; in assay [2], approximately 0.6 µg/mL.

B2: anti-IL2RA antibody 11D2 (antibody, human IgG1, V domains shown)
VH: QVQLVQSGGGVVQPGRSLRLSCAASGFTFTNYAIHWVRQAPGKGLEWVAVIWSDGDNKYYADSVKGRFTISRDNSKNTLYLQMNSLRAEDTAVYYCARTPWYCTSTNCYTGYYYYGMDVWGQGTTVTVSS
VL: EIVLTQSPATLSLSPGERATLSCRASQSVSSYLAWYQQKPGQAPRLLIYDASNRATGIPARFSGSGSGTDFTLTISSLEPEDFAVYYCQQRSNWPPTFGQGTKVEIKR
What is called EC50 is the concentration needed to bring the measured effect to its halfway point. The Kd is the equilibrium constant for the complex coming apart. By koff is commonly meant a measure of how fast the partners let go of each other. Broadly, the kon is the rate constant with which the complex forms. Consider B2, for which the EC50 in assay [3] amounted to 0.052 µg/mL. In assay [4], this molecule returned an EC50 of 0.039 µg/mL. Moreover, in assay [5], the affinity, expressed as Kd, was 1.27 nM; the koff came to 0.000235 s⁻¹; the kon came to 185000 M⁻¹ s⁻¹. Further, in assay [6], the Kd turned out to be 2.53 nM, the koff was found to be 0.000901 s⁻¹ and the kon came out at 356000 M⁻¹ s⁻¹.

B3: anti-IL2RA antibody 11C12 (antibody, human IgG1, V domains shown)
VH: QVQLVQSGGGLVQPGGSLRLSCSASGLTFSSYGMHWVRQAPGKGLDYVSGITNNGGRTEYADSVKGRFTISRDNSKNTLYLQMSSLRTEDTAVYYCVKEDWNGQYYYYAMDVWGQGTTVTVSS
VL: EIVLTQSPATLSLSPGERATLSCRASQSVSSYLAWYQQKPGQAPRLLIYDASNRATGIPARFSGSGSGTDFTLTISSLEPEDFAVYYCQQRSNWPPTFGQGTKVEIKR
notes: also called 1IC12
Molecule B3 returned a concentration giving a half-maximal response (EC50) in assay [3] of 0.083 µg/mL. The molecule further gave an EC50 in assay [4] of 0.091 µg/mL. Further, in assay [5], the Kd came to 8.9 nM, the koff is 0.00268 s⁻¹ and the kon amounted to 301000 M⁻¹ s⁻¹. Besides, in assay [6], the Kd was 118 nM, the koff worked out at 0.0343 s⁻¹ and the kon was found to be 291000 M⁻¹ s⁻¹.

B4: RG6292 analog (antibody, V domains shown)
VH: QVQLVQSGAEVKKPGASVKVSCKASGYTFTSYYMHWVRQAPGQGLEWMGIINPSGGSTSYAQKFQGRVTMTRDTSTSTVYMELSSLRSEDTAVYYCARGGAEYIPAEYFQHWGQGTLVTVSS
VL: EIVMTQSPATLSLSPGERATLSCRASQSVSSYLAWYQQKPGQAPRLLIYDASNRATGIPARFSGSGSGTDFTLTISSLEPEDFAVYYCQQRPFLPTFGGGTKVEIK
notes: RG6292 is described as a human IgG1 monoclonal antibody
For B4, in assay [5], the Kd came to 43.8 nM, the koff amounted to 0.00203 s⁻¹ and the kon was found to be 46300 M⁻¹ s⁻¹. Moreover, the binding result in assay [7] is on record as “no binding (tested: up to 200 nM antigen)”.

B5: anti-IL2RA antibody 7B5 (antibody, V domains shown)
VH: EVQLQQWGAGLLKPSETLSLTCAVYGGSFSGYYWNWIRQPPGKGLEWIGESDHSGSTHFNPSLKSRVTISLDTSKNQFSLKLNSVTAADTAVYFCARAPDYGDFDHWGQGILVTVSS
VL: DIQMTQSPDSLAVSLGERATINCRSSQSVLHSSTNKRYLAWYQQKPRQPPKLLIYWTSTRESGVPDRFSGSGSGTDFTLTISSLQAEDVAVYFCQQYYSTPYTFGQGTKLEIK
For the molecule B5, the midpoint of the response in assay [3], the EC50, lay at 0.411 µg/mL. In assay [4], this molecule came in with an EC50 of 0.435 µg/mL. In assay [5], this molecule returned a Kd of 6.35 nM, a koff of 0.0143 s⁻¹ and a kon of 2.25e+06 M⁻¹ s⁻¹. In assay [6], the Kd is 24.6 nM, the koff came out at 0.0258 s⁻¹ and the kon amounted to 1.05e+06 M⁻¹ s⁻¹.

B6: anti-IL2RA antibody 14C2 (antibody, human IgG1, V domains shown)
VH: QVQLVQSGGGVVQPGRSLRLSCAASGFTFSTYGMHWVRQAPGKGLEWVAVISYDGSDKIYADSVKGRFTISRDNSKNTLFLQMNSLRAEDTAVYYCATGPMENYYYYNMDVWGLGTTVTVSS
VL: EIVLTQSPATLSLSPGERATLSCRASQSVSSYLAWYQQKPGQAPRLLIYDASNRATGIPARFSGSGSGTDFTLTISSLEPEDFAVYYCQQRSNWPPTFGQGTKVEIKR
Turning to B6, the concentration for a half-maximal effect (EC50) in assay [3] was found to be 0.093 µg/mL; in assay [4], 0.088 µg/mL. Further, the Kd is 3.72 nM in assay [5] and 53.1 nM in assay [6]. Moreover, the koff in assay [5] came to 0.000962 s⁻¹; in assay [6], 0.0116 s⁻¹. Further, the results for the kon in assay [5] and in assay [6] were 258000 M⁻¹ s⁻¹ and 218000 M⁻¹ s⁻¹, respectively.

B7: anti-IL2RA antibody 5D9 (antibody, V domains shown)
VH: EVQLVESGGGLVQPGGSLRLSCAASGFTVSSNYMSWVRQTPGKGLELVSFIYSGGITSYADSVRGRFTISRDNSKNTLYLQMNSLRAEDTAVYYCARDDYSNYFDYWGQGTLVTVSS
VL: DIQMTQSPSSVSASVGDRVTITCRASQGISNWLAWYQQKPGKAPKLLIFAASSLQSGVPSRFSGSGSGTDFTLTISSLQPEDFATYYCQQAKSFPITFGQGTRLEIK
notes: Variable regions were cloned onto a human IgG constant region; also called 5D9-IgG1
B7 gave an EC50 in assay [3] of 0.47 µg/mL. The response in assay [4] was half-maximal at 0.466 µg/mL (EC50). In assay [5], this molecule gave a Kd of 5.14 nM, a koff of 0.00043 s⁻¹ and a kon of 83800 M⁻¹ s⁻¹. Further, in assay [6], the Kd worked out at 271 nM, the koff was determined as 0.0193 s⁻¹ and the kon stood at 71400 M⁻¹ s⁻¹.

B8: anti-IL2RA antibody 11C3 (antibody, human IgG1, V domains shown)
VH: QVQLVQSGAEVKKPGASVKVSCKASGYTFNSYYIHWVRQAPGQGLEWLGIINPTGGRTIYAQKFQGRVTMTRDTSTTTVDMELSSLRSEDTAVYYCARVPGYCKDTSCQDFYYYYGMDVWGQGSTVTVSS
VL: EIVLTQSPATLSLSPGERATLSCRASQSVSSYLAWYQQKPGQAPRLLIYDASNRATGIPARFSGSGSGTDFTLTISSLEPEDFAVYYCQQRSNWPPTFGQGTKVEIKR
B8 returned an EC50 in assay [3] of 0.099 µg/mL. Moreover, it took 0.111 µg/mL to reach a half-maximal effect in assay [4] (EC50). Also, in assay [5], binding was put at a Kd of 0.266 nM, the koff is 9.42e-05 s⁻¹ and the kon is 354000 M⁻¹ s⁻¹. In addition, in assay [6], the Kd was 0.528 nM, the koff was 0.000166 s⁻¹ and the kon is 314000 M⁻¹ s⁻¹.

B9: anti-IL2RA antibody 13F9 (antibody, human IgG1, V domains shown)
VH: QVQLVQSGAEVKRPGASVKVSCKASGYTFTTYAIHWVRQAPGQRLEWMGWINADNGYTKYSQNFQGRVTITRDTSASTAYMDLSTLRSEDTALYYCARTPRYCTSTSCSTGYYYYGMDVWGQGTTVTVSS
VL: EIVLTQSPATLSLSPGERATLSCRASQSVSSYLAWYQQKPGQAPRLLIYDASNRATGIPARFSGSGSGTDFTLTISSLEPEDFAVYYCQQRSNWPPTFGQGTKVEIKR
With B9, the EC50 in assay [3] worked out at 0.326 µg/mL. For the same molecule, the EC50 in assay [4] was 0.275 µg/mL. Also, in assay [5], the Kd was found to be 0.655 nM, the koff is 2.11e-05 s⁻¹ and the kon is 32300 M⁻¹ s⁻¹. Moreover, in assay [6], the Kd was 11.8 nM, the koff came to 0.000447 s⁻¹ and the kon was 37800 M⁻¹ s⁻¹.
